Assay results taken from patent US20250320281A1.

Columns and labels:
Assay in all cases: cell-based or functional assay
[1] = target: HIV-1 Env of isolate MGRM-G-006 (HIV-1)
[2] = target: HIV-1 Env of isolate MGRM-AE-002 (subtype AE) (HIV-1)
[3] = target: HIV-1 Env of isolate 92WR009 (subtype A) (HIV-1)
[4] = target: HIV-1 Env of isolate 94 KE 105 (subtype AC) (HIV-1)
[5] = target: HIV-1 Env of isolate MGRM-AE-003 (subtype AE) (HIV-1)
[6] = target: HIV-1 Env of isolate CMU02 (subtype AE) (HIV-1)
[7] = target: HIV-1 Env of isolate MGRM-G-015 (HIV-1)
[8] = target: HIV-1 Env of isolate 92UG031 (subtype A) (HIV-1)
[9] = target: HIV-1 envelope glycoprotein (Env) of isolate 6535.3 (HIV-1)
[10] = target: HIV-1 Env of isolate MGRM-G-016 (HIV-1)
[11] = target: HIV-1 envelope glycoprotein (Env) of isolate MGRM-Chronic-B-008 (HIV-1)
[12] = target: HIV-1 Env of isolate 93UG077 (subtype A) (HIV-1)
[13] = target: HIV-1 envelope glycoprotein (Env) of isolate 93TH305 (HIV-1)
[14] = target: HIV-1 envelope glycoprotein (Env) of isolate APV_17 (HIV-1)
[15] = target: HIV-1 Env of isolate MGRM-G-014 (HIV-1)
[16] = target: HIV-1 Env of isolate 92WR021 (subtype A) (HIV-1)
[17] = target: HIV-1 envelope glycoprotein (Env) of isolate 92BR020 (HIV-1)
[18] = target: HIV-1 Env of isolate MGRM-G-017 (HIV-1)
[19] = target: HIV-1 Env of isolate VLGCA1 (subtype A) (HIV-1)
[20] = target: HIV-1 Env of isolate MGRM-G-019 (HIV-1)
[21] = target: HIV-1 Env of isolate 92UG037 (subtype A) (HIV-1)
[22] = target: HIV-1 envelope glycoprotein (Env) of isolate MGRM-Chronic-B-003 (HIV-1)
[23] = target: HIV-1 Env of isolate 94UG103 (subtype A) (HIV-1)
[24] = target: HIV-1 Env of isolate MGRM-AE-005 (subtype AE) (HIV-1)
[25] = target: HIV-1 Env of isolate MGRM-G-027 (HIV-1)
[26] = target: HIV-1 envelope glycoprotein (Env) of isolate CAAN.A2 (HIV-1)
[27] = target: HIV-1 Env of isolate MGRM-G-004 (HIV-1)
[28] = target: HIV-1 Env of isolate MGRM-G-009 (HIV-1)
[29] = target: HIV-1 Env of isolate MGRM-AE-004 (subtype AE) (HIV-1)
[30] = target: HIV-1 envelope glycoprotein (Env) of isolate JR-FL (HIV-1)
[31] = target: HIV-1 envelope glycoprotein (Env) of isolate MGRM-Chronic-B-004 (HIV-1)
[32] = target: HIV-1 Env of isolate MGRM-G-025 (HIV-1)
[33] = target: HIV-1 Env of isolate 93WR029 (subtype A) (HIV-1)
[34] = target: HIV-1 Env of isolate MGRM-G-011 (HIV-1)
[35] = target: HIV-1 Env of isolate 92WR024 (subtype A) (HIV-1)
[36] = target: HIV-1 envelope glycoprotein (Env) of isolate MGRM-Chronic-B-001 (HIV-1)
[37] = target: HIV-1 Env of isolate 92TH021 (subtype AE) (HIV-1)
[38] = target: HIV-1 Env of isolate 92WR020 (subtype A) (HIV-1)
[39] = target: HIV-1 Env of isolate MGRM-AE-006 (subtype AE) (HIV-1)
[40] = target: HIV-1 Env of isolate MGRM-G-024 (HIV-1)
[41] = target: HIV-1 envelope glycoprotein (Env) of isolate APV_6 (HIV-1)
[42] = target: HIV-1 Env of isolate MGRM-G-001 (HIV-1)
[43] = target: HIV-1 Env of isolate MGRM-G-028 (HIV-1)
[44] = target: HIV-1 Env of isolate 92WR026 (subtype A) (HIV-1)
[45] = target: aMLV envelope (negative control pseudovirus)
[46] = target: HIV-1 envelope glycoprotein (Env) of isolate MGRM-Chronic-B-002 (HIV-1)
[47] = target: HIV-1 Env of isolate MGRM-AE-001 (subtype AE) (HIV-1)
[48] = target: HIV-1 Env of isolate 92RW008 (subtype A) (HIV-1)
[49] = target: HIV-1 Env of isolate MGRM-G-013 (HIV-1)
[50] = target: HIV-1 envelope glycoprotein (Env) of isolate APV_13 (HIV-1)

Chain of 4995_P16 (PGT-145) (antibody) (VH): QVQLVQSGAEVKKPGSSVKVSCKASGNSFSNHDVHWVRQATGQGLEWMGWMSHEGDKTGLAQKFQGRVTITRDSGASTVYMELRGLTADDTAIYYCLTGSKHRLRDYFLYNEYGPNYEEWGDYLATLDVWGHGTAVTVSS
Chain of 4995_P16 (PGT-145) (antibody) (VL): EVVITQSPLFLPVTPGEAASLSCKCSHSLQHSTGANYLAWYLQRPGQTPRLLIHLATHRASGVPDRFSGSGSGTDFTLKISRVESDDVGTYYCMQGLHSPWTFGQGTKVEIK

4995_P16 (PGT-145) (antibody) showed an IC50 (µg/mL), pseudovirus neutralization [1] of 0.286 µg/mL, an IC50 (µg/mL), pseudovirus neutralization [2] of 1.87 µg/mL and an IC50 (µg/mL), pseudovirus neutralization [3] of 0.026 µg/mL. For the same substance, the IC50 (µg/mL), pseudovirus neutralization [4] was 1.32 µg/mL, the IC50 (µg/mL), pseudovirus neutralization [5] was 0.552 µg/mL and the IC50 (µg/mL), pseudovirus neutralization [6] was 1.43 µg/mL. The IC50 (µg/mL), pseudovirus neutralization [7] was 10.5 µg/mL, the IC50 (µg/mL), pseudovirus neutralization [8] was 3.22 µg/mL and the IC50 (µg/mL), pseudovirus neutralization [9] was over 50 µg/mL. For the same substance, the IC50 (µg/mL), pseudovirus neutralization [10] was 0.081 µg/mL, the IC50 (µg/mL), pseudovirus neutralization [11] was 1.9 µg/mL and the IC50 (µg/mL), pseudovirus neutralization [12] was over 50 µg/mL. For the same substance, the IC50 (µg/mL), pseudovirus neutralization [13] was 0.032 µg/mL, the IC50 (µg/mL), pseudovirus neutralization [14] was 0.488 µg/mL and the IC50 (µg/mL), pseudovirus neutralization [15] was 0.144 µg/mL. The IC50 (µg/mL), pseudovirus neutralization [16] was 1.62 µg/mL, the IC50 (µg/mL), pseudovirus neutralization [17] was 1.05 µg/mL and the IC50 (µg/mL), pseudovirus neutralization [18] was 0.205 µg/mL. The IC50 (µg/mL), pseudovirus neutralization [19] was 8.01 µg/mL, the IC50 (µg/mL), pseudovirus neutralization [20] was 0.041 µg/mL and the IC50 (µg/mL), pseudovirus neutralization [21] was 3.15 µg/mL. It also gave an IC50 (µg/mL), pseudovirus neutralization [22] of 0.045 µg/mL, an IC50 (µg/mL), pseudovirus neutralization [23] of 0.331 µg/mL and an IC50 (µg/mL), pseudovirus neutralization [24] of 0.967 µg/mL. The IC50 (µg/mL), pseudovirus neutralization [25] was 0.433 µg/mL, the IC50 (µg/mL), pseudovirus neutralization [26] was 7.08 µg/mL and the IC50 (µg/mL), pseudovirus neutralization [27] was over 50 µg/mL. It also gave an IC50 (µg/mL), pseudovirus neutralization [28] of 0.982 µg/mL, an IC50 (µg/mL), pseudovirus neutralization [29] of 0.006 µg/mL and an IC50 (µg/mL), pseudovirus neutralization [30] of 30.4 µg/mL. It also gave an IC50 (µg/mL), pseudovirus neutralization [31] of 0.023 µg/mL, an IC50 (µg/mL), pseudovirus neutralization [32] of over 50 µg/mL and an IC50 (µg/mL), pseudovirus neutralization [33] of over 50 µg/mL. The IC50 (µg/mL), pseudovirus neutralization [34] was 0.028 µg/mL, the IC50 (µg/mL), pseudovirus neutralization [35] was 0.069 µg/mL and the IC50 (µg/mL), pseudovirus neutralization [36] was 3.22 µg/mL. The IC50 (µg/mL), pseudovirus neutralization [37] was 0.013 µg/mL, the IC50 (µg/mL), pseudovirus neutralization [38] was 0.997 µg/mL and the IC50 (µg/mL), pseudovirus neutralization [39] was over 50 µg/mL. The IC50 (µg/mL), pseudovirus neutralization [40] was 0.06 µg/mL, the IC50 (µg/mL), pseudovirus neutralization [41] was 0.104 µg/mL and the IC50 (µg/mL), pseudovirus neutralization [42] was 0.028 µg/mL. For the same substance, the IC50 (µg/mL), pseudovirus neutralization [43] was 0.046 µg/mL, the IC50 (µg/mL), pseudovirus neutralization [44] was 1.45 µg/mL and the IC50 (µg/mL), pseudovirus neutralization [45] was over 50 µg/mL. For the same substance, the IC50 (µg/mL), pseudovirus neutralization [46] was 3.67 µg/mL, the IC50 (µg/mL), pseudovirus neutralization [47] was 20.9 µg/mL and the IC50 (µg/mL), pseudovirus neutralization [48] was 0.4 µg/mL. It also gave an IC50 (µg/mL), pseudovirus neutralization [49] of over 50 µg/mL and an IC50 (µg/mL), pseudovirus neutralization [50] of 0.337 µg/mL.
